B1: ATRAP-HA [not stated] / GST-AP4μ^160–453 [not stated] (parent complex)
chain 1: MELPAVNLKVILLGHWLLTTWGCIVFSGSYAWANFTILALGVWAVAQRDSIDAISMFLGGLLATIFLDIVHISIFYPRVSLTDTGRFGVGMAILSLLLKPLSCCFVYHMYRERGGELLVHTGFLGSSQDRSAYQTIDSAEAPADPFAVPEGRSQDARGY
chain 2: QQSKVAPSSAASRPVLSSRSDQSQKNEVFLDVVERLSVLIASNGSLLKVDVQGEIRLKSFLPSGSEMRIGLTEEFCVGKSELRGYGPGIRVDEVSFHSSVNLDEFESHRILRLQPPQGELTVMRYQLSDDLPSPLPFRLFPSVQWDRGSGRLQVYLKLRCDLLSKSQALNVRLHLPLPRGVVSLSQELSSPEQKAELAEGALRWDLPRVQGGSQLSGLFQMDVPGPPGPPSHGLSTSASPLGLGPASLSFELPRHTCSGLQVRFLRLAFRPCGNANPHKWVRHLSHSDAYVIRI

Variants of: B1
Experiment: GST pull-down, immunoblot quantification; bound protein normalized to the 2% loading; sum of both groups normalized to 1 in each replicate; n = 4, mean ± SD; parent: 0.71; read off a plot
chain 1 Y133A showed a response of ~0.29.
